This series can be described thus: soluble fraction after stress (log2 fold change); higher = more stays soluble; pooled small domains, quantitative proteomics. The following applies: stress: pH 4. Summed up: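 Values are on a log2 scale, where higher means more of the domain stayed soluble after pH 4 stress. They are fold changes in the soluble amount of each domain from pooled custom libraries, measured by high-throughput quantitative proteomics. The fold change is taken to reflect aggregation propensity.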

Where only a bound is given, the exact number is not on record here.

With “HMAPKRIVLRFGKDISDKPIIYYLVKDYDLVINILKANVNPNKEGTLVLELSGENYDKGIEFLISQGVTVQ”, the “soluble fraction (log2)” value was -1.33.

In the case of “HMAPKVHLLKVPVDKIREIIGTGGKVIRQITEETGAKIDISDDGSVKVSSPDQSSIDAATTWITGIIAE”, the “soluble fraction (log2)” value was -0.102.

For the sequence “HMAPLATLEAGEDGSVKLPNLAGHSIREVAAALGGAKLSLIPIGSGTSWKQTPAPGAVLHSGDTVTVYF”, the “soluble fraction (log2)” value stood at 0.0923.

On to “HMAPNDELTRQVISVLSGTPQQAFNYKQISKKLNINDSSERRMVSNILRELAGKGEIVEVYQGKYRSKAPA”, for which the “soluble fraction (log2)” value was found to be 0.116.

“HMAPPTAEFFAHLPAEALSAVRRSVEEGNARGIDEAILRVETLDGEAGRVLRGLAARYEYGRILELTQR”: the “soluble fraction (log2)” value is -0.0842.

Regarding “HMAPQSAAAILRYLSSGAIRGVGPATAQRIVERFGTDSLEIIQNRPKELAAINGISINKALSISEEYAKQY”, the “soluble fraction (log2)” value was -0.0357.

Turning to “HMAPREELIAIHEALDKLEREDPQVSQLVKLRYFVGMTMAEAADAMDLKKRAAEALWTYGKAWLHREIKKN”, the “soluble fraction (log2)” value was -0.576.

On to “HMAPRIVTIQIPVDKIRDVIGPGGKVIRSIIERTGVKIDVEDDGRVNVASADGDSAQRAIAIIQELTAT”, for which the “soluble fraction (log2)” value is -0.0595.

On to “HMAPSIPSGADIRAAREAAGINLRDFARIVDGPGIAIWSRYETGTPIRVKSISPEVWQKVRDFISQHG”, for which the “soluble fraction (log2)” value amounted to 0.228.

As for “HMAPTADSVPFVIRSVVGGAQPFIVLEDGSKLLVGGVYRKYRLVAVENTRIIFEGPRTAIVT”, the “soluble fraction (log2)” value was -0.681.

“HMAPTPAGNLRSLKSEIVNYTRQSSTAYVYTFKDLSSGELYTARASRYYAAAGDTAYISTAAGAITDM”: the “soluble fraction (log2)” value is -0.0513.

Consider “HMAPTVPEVVRLEEGAARSAIEAAGLSVGSVEFRASSDPAGTVLATRPIAGRKVRPSSAVDLVLSDGRTP”, for which the “soluble fraction (log2)” value amounted to 0.0751.

“HMAPVEEWAKASVMEDPTLVTETMARIFAQQGQIGKARKAYRHLALTYPAKSTYFAAQLKKLNQR”: the “soluble fraction (log2)” value stood at 0.355.

“HMAPVLTATVNTTSGKLNMRAAASATSAKLTSIPRGATVTVLEKGTTWSRISYGGYTGYVMTQYLKFD”: the “soluble fraction (log2)” value was -0.575.

On to “HMAPVVELEDVTIVRGKATLLDRVNWVIDETDRWVIVGPNGAGKTTLLQVVSANLHPTSGKAMILDEVL”, for which the “soluble fraction (log2)” value was -0.366.

With “HMAQILEPSVALKKLLELKQAGFEDETLVGWIRKVEFTRPLTPDDLLEWKGAGISQAVIRAAM”, the “soluble fraction (log2)” value was found to be 0.00449.

With “HMAQISDEGLLRGLIVEMFEANPAVVEELLGGRDRKKGFVIGQIMKKTKGMANPALLDQLFYEELEKL”, the “soluble fraction (log2)” value is -1.31.

On to “HMAQTEIPYSEFLREVGNGQIKSVIIEGSEITGFYKTSGTSFNVVAPDDPKLVERLMDQGVEVRAQPT”, for which the “soluble fraction (log2)” value stood at 0.193.

Regarding “HMAQVVMPNVVGKTEKDATATLEGKNLKVNVEYNLDATSDDGIVKEQSIKSGENIDEGTEITLKVNKV”, the “soluble fraction (log2)” value was -1.69.

For “HMAQWGFNGSEAGDLSFQQGDVIEVVEKVKDDWWRGRVLGSTEIGLFPS”, the “soluble fraction (log2)” value was -1.64.

Turning to “HMARDDVIRLVQLSLDHLPAKYADALEWKYVEGLSTKEIAARLELGSEAAESLLARARRAFKNDFQEIFES”, the “soluble fraction (log2)” value is -0.47.

On to “HMAREFPGTIIKRGSRGPDVRWIQQHIGVKLVDGVFGRGTERAVKQFQSRRRLKADGIVGRQTWAAIHN”, for which the “soluble fraction (log2)” value is at least 0.43.

As to “HMARGATELPYSQLLDRVEAGEITTATTQGNTLLSTARDGKRYITYLPLDTMDEVVPRLDAANVEVKTER”, the “soluble fraction (log2)” value is -0.123.

With “HMARGLRPVPSVFGLDVRQATRTLYAAGFQVSIARGSDVRTRPAAGTLLRVGSTVQLEMPRMESA”, the “soluble fraction (log2)” value is -0.000244.

Consider “HMARGTRTRAKLLAAAEVVFARYGYTEASIERITEEAGVGQGTFYLYFASKLEIFEELVDDLNR”, for which the “soluble fraction (log2)” value was -1.07.

For the sequence “HMARLEELSNGSIVEGLLSGEAVTVVSTKWYGSSSMEVFYKTNRGSTGSQILYREDEPSLTVLEKS”, the “soluble fraction (log2)” value was -0.425.

Take “HMARPLHVDALIHLGTEIGSRVGGAHAGPHLLVAGHSPMSELVYARLLGIPTLGWMRGQLTFVNLSK”: the “soluble fraction (log2)” value was 0.108.

With “HMARSKSRQSSVLESVPGLGPSRRRNLLRHFGGLQGVVKAGVEDLMAVRGISRTLAETVYDHLHPGS”, the “soluble fraction (log2)” value came out at 0.22.

The values above are taken from the domain aggregation screens of Martell et al. (2025).
